Reference: patent US20220017591A1 (AstraZeneca / MedImmune, published 2022)
Numbering of substitutions follows the chain as printed.

T1: human RXFP1 (human, UniProt Q9HBX9 1-757)
T1 sequence (looked up): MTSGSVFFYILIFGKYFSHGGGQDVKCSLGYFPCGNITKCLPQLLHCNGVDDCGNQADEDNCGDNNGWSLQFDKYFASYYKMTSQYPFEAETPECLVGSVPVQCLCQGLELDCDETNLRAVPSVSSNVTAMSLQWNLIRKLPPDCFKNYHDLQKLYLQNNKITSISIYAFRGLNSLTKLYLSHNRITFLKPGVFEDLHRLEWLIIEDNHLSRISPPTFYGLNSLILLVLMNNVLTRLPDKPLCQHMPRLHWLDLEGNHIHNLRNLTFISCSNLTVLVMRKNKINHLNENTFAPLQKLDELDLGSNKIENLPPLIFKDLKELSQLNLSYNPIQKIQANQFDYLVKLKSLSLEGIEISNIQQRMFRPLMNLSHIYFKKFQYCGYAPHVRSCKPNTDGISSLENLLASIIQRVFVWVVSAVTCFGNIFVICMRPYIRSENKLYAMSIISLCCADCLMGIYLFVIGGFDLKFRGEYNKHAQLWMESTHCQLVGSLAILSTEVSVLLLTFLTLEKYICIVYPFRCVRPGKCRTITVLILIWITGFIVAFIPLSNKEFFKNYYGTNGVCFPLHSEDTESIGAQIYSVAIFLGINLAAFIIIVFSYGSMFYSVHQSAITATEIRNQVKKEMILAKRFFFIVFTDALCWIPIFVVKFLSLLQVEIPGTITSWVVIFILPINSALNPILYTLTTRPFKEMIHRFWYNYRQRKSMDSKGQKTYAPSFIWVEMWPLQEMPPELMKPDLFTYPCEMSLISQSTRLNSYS

T2: mouse RXFP1 (mouse, UniProt Q6R6I7 1-758)
T2 sequence (looked up): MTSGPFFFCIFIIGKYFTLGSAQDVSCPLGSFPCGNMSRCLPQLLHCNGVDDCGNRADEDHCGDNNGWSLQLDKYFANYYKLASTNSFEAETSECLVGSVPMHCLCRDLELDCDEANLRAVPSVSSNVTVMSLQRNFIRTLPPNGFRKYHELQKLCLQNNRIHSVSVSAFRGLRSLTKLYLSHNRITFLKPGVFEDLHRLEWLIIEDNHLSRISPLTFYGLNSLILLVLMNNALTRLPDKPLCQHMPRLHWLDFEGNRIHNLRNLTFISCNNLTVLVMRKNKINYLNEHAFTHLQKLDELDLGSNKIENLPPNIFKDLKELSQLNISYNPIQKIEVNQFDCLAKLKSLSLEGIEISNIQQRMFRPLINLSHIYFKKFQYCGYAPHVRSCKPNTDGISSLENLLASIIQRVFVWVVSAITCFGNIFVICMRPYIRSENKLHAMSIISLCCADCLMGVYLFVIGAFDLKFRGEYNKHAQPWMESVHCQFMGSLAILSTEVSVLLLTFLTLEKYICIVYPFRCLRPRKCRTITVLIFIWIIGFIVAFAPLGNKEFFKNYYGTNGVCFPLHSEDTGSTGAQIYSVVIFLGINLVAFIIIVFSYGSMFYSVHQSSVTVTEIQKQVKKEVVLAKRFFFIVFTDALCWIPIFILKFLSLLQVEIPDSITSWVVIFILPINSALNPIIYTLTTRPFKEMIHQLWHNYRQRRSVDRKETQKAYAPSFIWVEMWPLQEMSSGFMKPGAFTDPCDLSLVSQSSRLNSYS

B1: RELAX0020 (Fc fusion)
chain 1: GGAGGACPPCPAPEFEGGPSVFLFPPKPKDTLMISRTPEVTCVVVDVSHEDPEVKFNWYVDGVEVHNAKTKPREEQYNSTYRVVSVLTVLHQDWLNGKEYKCKVSNKALPASIEKTISKAKGQPREPQVYTLPPCREEMTKNQVSLWCLVKGFYPSDIAVEWESNGQPENNYKTTPPVLDSDGSFFLYSKLTVDKSRWQQGNVFSCSVMHEALHNHYTQKSLSLSPGGGGGSGGGGSGGGGSGGGGGSSWMEEVIKLCGRELVRAQIAICGMSTWS
chain 2: GGAGGACPPCPAPEFEGGPSVFLFPPKPKDTLMISRTPEVTCVVVDVSHEDPEVKFNWYVDGVEVHNAKTKPREEQYNSTYRVVSVLTVLHQDWLNGKEYKCKVSNKALPASIEKTISKAKGQPREPQVCTLPPSREEMTKNQVSLSCAVKGFYPSDIAVEWESNGQPENNYKTTPPVLDSDGSFFLVSKLTVDKSRWQQGNVFSCSVMHEALHNHYTQKSLSLSPGGGGGSGGGGSGGGGSGGGGGSQLYSALANKCCHVGCTKRSLARFC
B2: RELAX0024 (Fc fusion)
chain 1: DKTHTCPPCPAPEFEGGPSVFLFPPKPKDTLMISRTPEVTCVVVDVSHEDPEVKFNWYVDGVEVHNAKTKPREEQYNSTYRVVSVLTVLHQDWLNGKEYKCKVSNKALPASIEKTISKAKGQPREPQVCTLPPSREEMTKNQVSLSCAVKGFYPSDIAVEWESNGQPENNYKTTPPVLDSDGSFFLVSKLTVDKSRWQQGNVFSCSVMHEALHNHYTQKSLSLSPGGGGGSGGGGSGGGGSGGGGGSQLYSALANKCCHVGCTKRSLARFC
chain 2: DKTHTCPPCPAPEFEGGPSVFLFPPKPKDTLMISRTPEVTCVVVDVSHEDPEVKFNWYVDGVEVHNAKTKPREEQYNSTYRVVSVLTVLHQDWLNGKEYKCKVSNKALPASIEKTISKAKGQPREPQVYTLPPCREEMTKNQVSLWCLVKGFYPSDIAVEWESNGQPENNYKTTPPVLDSDGSFFLYSKLTVDKSRWQQGNVFSCSVMHEALHNHYTQKSLSLSPGGGGGSGGGGSGGGGSGGGGGSSWMEEVIKLCGRELVRAQIAICGMSTWS
B3: RELAX0022 (Fc fusion)
chain 1: B1 chain 2 with C130Y
chain 2: B1 chain 1 with C135S
B4: RELAX0091 (Fc fusion)
chain 1: QLYSALANKCCHVGCTKRSLARFCAAAGGGGSGGGGSGGGGSGGGGSACPPCPAPEFEGGPSVFLFPPKPKDTLMISRTPEVTCVVVDVSHEDPEVKFNWYVDGVEVHNAKTKPREEQYNSTYRVVSVLTVLHQDWLNGKEYKCKVSNKALPASIEKTISKAKGQPREPQVYTLPPCREEMTKNQVSLWCLVKGFYPSDIAVEWESNGQPENNYKTTPPVLDSDGSFFLYSKLTVDKSRWQQGNVFSCSVMHEALHNHYTQKSLSLSPG
chain 2: SWMEEVIKLCGRELVRAQIAICGMSTWSAAAGGGGSGGGGSGGGGSGGGGSACPPCPAPEFEGGPSVFLFPPKPKDTLMISRTPEVTCVVVDVSHEDPEVKFNWYVDGVEVHNAKTKPREEQYNSTYRVVSVLTVLHQDWLNGKEYKCKVSNKALPASIEKTISKAKGQPREPQVCTLPPSREEMTKNQVSLSCAVKGFYPSDIAVEWESNGQPENNYKTTPPVLDSDGSFFLVSKLTVDKSRWQQGNVFSCSVMHEALHNHYTQKSLSLSPG
B5: RELAX0053 (Fc fusion)
chain 1: DKTHTACPPCPAPEFEGGPSVFLFPPKPKDTLMISRTPEVTCVVVDVSHEDPEVKFNWYVDGVEVHNAKTKPREEQYNSTYRVVSVLTVLHQDWLNGKEYKCKVSNKALPASIEKTISKAKGQPREPQVYTLPPCREEMTKNQVSLWCLVKGFYPSDIAVEWESNGQPENNYKTTPPVLDSDGSFFLYSKLTVDKSRWQQGNVFSCSVMHEALHNHYTQKSLSLSPGGGGGSGGGGSGGGGSGGGGGSQLYSALANKCCHVGCTKHSLARFC
chain 2: B2 chain 2 with Y129C, C134S, W146S, L148A, Y187V
B6: RELAX0063 (Fc fusion)
chain 1: B2 chain 1 with C129Y, S134C, S146W, A148L, V187Y, F270A
chain 2: B2 chain 2 with Y129C, C134S, W146S, L148A, Y187V
B7: RELAX0069 (Fc fusion)
chain 1: B2 chain 1 with C129Y, S134C, S146W, A148L, V187Y, R269M
chain 2: B2 chain 2 with Y129C, C134S, W146S, L148A, Y187V
B8: RELAX0070 (Fc fusion)
chain 1: B2 chain 1 with C129Y, S134C, S146W, A148L, V187Y, R269I
chain 2: B2 chain 2 with Y129C, C134S, W146S, L148A, Y187V
B9: RELAX0071 (Fc fusion)
chain 1: B2 chain 1 with C129Y, S134C, S146W, A148L, V187Y, R269Q
chain 2: B2 chain 2 with Y129C, C134S, W146S, L148A, Y187V
B10: RELAX0072 (Fc fusion)
chain 1: B2 chain 1 with C129Y, S134C, S146W, A148L, V187Y, R269A
chain 2: B2 chain 2 with Y129C, C134S, W146S, L148A, Y187V
B11: RELAX0073 (Fc fusion)
chain 1: B2 chain 1 with C129Y, S134C, S146W, A148L, V187Y, R269Y
chain 2: B2 chain 2 with Y129C, C134S, W146S, L148A, Y187V
B12: RELAX0074 (Fc fusion)
chain 1: B2 chain 1 with C129Y, S134C, S146W, A148L, V187Y, R269S
chain 2: B2 chain 2 with Y129C, C134S, W146S, L148A, Y187V
B13: RELAX0075 (Fc fusion)
chain 1: B2 chain 1 with C129Y, S134C, S146W, A148L, V187Y, F270I
chain 2: B2 chain 2 with Y129C, C134S, W146S, L148A, Y187V

These binders were tested against T1, human RXFP1 (assay: cell-based or functional assay).

Binder | EC50 hRXFP1 (M), cAMP assay [M]
B1 | 4.41e-11
B2 | 4.6e-11
B3 | 4.74e-11
B4 | 5.88e-11

What follows are binders tested against T2, mouse RXFP1 (assay: cell-based or functional assay).

Binder | EC50 mRXFP1 (M), cAMP assay [M]
B1 | 2.79e-11
B2 | 1.56e-11
B3 | 3.28e-11
B4 | 2.88e-11

The binders below were run against T3, human RXFP2 (human, UniProt Q8WXD0 1-754) (assay: cell-based or functional assay).
T3 sequence (Q8WXD0 whole entry): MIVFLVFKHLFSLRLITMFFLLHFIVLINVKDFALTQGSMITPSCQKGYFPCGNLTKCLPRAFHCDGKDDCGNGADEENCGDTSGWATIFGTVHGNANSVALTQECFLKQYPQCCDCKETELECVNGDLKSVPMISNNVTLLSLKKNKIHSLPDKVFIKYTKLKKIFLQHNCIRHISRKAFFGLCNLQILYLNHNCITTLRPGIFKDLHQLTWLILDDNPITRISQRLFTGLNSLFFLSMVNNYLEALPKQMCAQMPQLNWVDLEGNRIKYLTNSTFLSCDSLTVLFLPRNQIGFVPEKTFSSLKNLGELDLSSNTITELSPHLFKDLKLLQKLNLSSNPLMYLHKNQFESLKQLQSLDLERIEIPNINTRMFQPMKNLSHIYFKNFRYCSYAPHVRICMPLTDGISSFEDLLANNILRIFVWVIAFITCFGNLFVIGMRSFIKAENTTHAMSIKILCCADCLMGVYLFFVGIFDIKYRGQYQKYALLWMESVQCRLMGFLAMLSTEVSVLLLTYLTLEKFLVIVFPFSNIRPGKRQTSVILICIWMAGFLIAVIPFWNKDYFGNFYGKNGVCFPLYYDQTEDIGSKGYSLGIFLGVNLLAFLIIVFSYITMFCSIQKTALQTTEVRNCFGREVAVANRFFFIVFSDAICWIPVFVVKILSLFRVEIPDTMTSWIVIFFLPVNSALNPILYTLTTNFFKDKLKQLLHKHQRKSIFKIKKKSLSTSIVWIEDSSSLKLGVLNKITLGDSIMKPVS

Binder | EC50 hRXFP2 (M), cAMP assay [M]
B1 | 3.54e-08
B2 | 4.26e-08
B4 | > 1.09e-07

Biological target: T1, human RXFP1
Experiment: cell-based or functional assay
Remark: another data set of the same source

Binder | EC50 hRXFP1 (M), cAMP assay [M]
B5 | 7.15e-11
B6 | 1.96e-10
B7 | 5.76e-11
B8 | 6.67e-11
B9 | 6.87e-11
B10 | 8.53e-11
B11 | 5.7e-11
B12 | 5.45e-11
B13 | 9.47e-11

Biological target: T2, mouse RXFP1
Experiment: cell-based or functional assay
Remark: another data set of the same source

Binder | EC50 mRXFP1 (M), cAMP assay [M]
B5 | 4.36e-11
B6 | 4.46e-11
B7 | 3.69e-11
B8 | 5.02e-11
B9 | 3.93e-11
B10 | 4.03e-11
B11 | 4.15e-11
B12 | 4.53e-11
B13 | 6.14e-11

Biological target: T3, human RXFP2
Experiment: cell-based or functional assay
Remark: another data set of the same source

Binder | EC50 hRXFP2 (M), cAMP assay [M]
B5 | > 1.79e-07
B6 | > 1.38e-07
B7 | > 1.62e-07
B8 | 1.07e-07
B9 | 1.15e-07
B10 | > 2.3e-07
B11 | 8.63e-08
B12 | 9.21e-08
B13 | > 1.43e-07
